Reference: patent US8993255B2, “Protein having fructosyl valyl histidine oxidase activity, modified protein, and use of the protein or the modified protein” (Toyo Boseki Kabushiki Kaisha, priority 2008, dated 2015)

Assays:
[1] = test system: CC(C)[C@H](NCC1(O)OC[C@@H](O)[C@@H](O)[C@@H]1O)C(=O)N[C@@H](Cc1c[nH]cn1)C(=O)O; experiment: purified protein, by the assay type; conditions: other: IE353, F-VH 0.18-1.75 mM, 37° C., MES pH 6.5, peroxidase-coupled, Lineweaver-Burk plot
Method: The reaction was conducted at 37° C. for 5 minutes, and then a change in the absorbance at 500 nm (ΔODtest/min) was measured. Meanwhile, a blank test was conducted by adding, instead of the enzyme solution, 0.1 ml of enzyme diluent to the activity measuring reagent, and then measuring a change in the absorbance at 500 nm (ΔODblank/min) in the same way. The enzyme activity was calculated from the changes in absorbance on the basis of the following formula, and is described by unit (U) where an amount of enzyme that oxidizes 1 micromole of substrate in one minute under the above-described condition is 1 unit (U). —Formula— Activity value(U/ml)={ΔOD/min(ΔODtest−ΔODblank)×3.1(ml)×dilution magnification}/{13×1.0(cm)×0.1(ml)}. In the above formula, • “3.1 (ml)” is the whole liquid quantity; • “13” is a millimolar absorbance index; • “1.0 (cm)” is an optical length of a cell; and • “0.1 (ml)” is the enzyme sample quantity. […]

[2] = substrate: CC(C)[C@H](NCC1(O)OC[C@@H](O)[C@@H](O)[C@@H]1O)C(=O)N[C@@H](Cc1c[nH]cn1)C(=O)O; experiment: Km value to F-VH (Lineweaver-Burk plot); assay type: biochemical, Coniochaeta sp.; conditions: other: FPOX-CE, F-VH 0.18-1.75 mM, 37° C., MES pH 6.5, peroxidase-coupled
Method: (§1) The chemical compounds used in the present examples were purchased from NACALAI TESQUE, INC. unless otherwise particularly stated.
(§2) The following describes an activity measurement method of the following examples 1 through 3.
(§3) An enzyme activity to a substrate was measured by an increase in absorbance of a pigment as a result of peroxidase reaction involving hydrogen peroxide generated by enzyme reaction. First, 3 ml of activity measuring reagent was heated at 37° C. for 5 minutes, and then 0.1 ml of enzyme solution diluted in advance by an enzyme diluent (a 50 mM potassium phosphate buffer (pH 7.5)) was added to the activity measuring reagent, thereby starting the reaction.
(§4) The reaction was conducted at 37° C. for 5 minutes, and then a change in the absorbance at 500 nm (ΔODtest/min) was measured. Meanwhile, a blank test was conducted by adding, instead of the enzyme solution, 0.1 ml of enzyme diluent to the activity measuring reagent, and then measuring a change in the absorbance at 500 nm (ΔODblank/min) in the same way. […] In the above formula, • “3.1 (ml)” is the whole liquid quantity; • “13” is a millimolar absorbance index; • “1.0 (cm)” is an optical length of a cell; and • “0.1 (ml)” is the enzyme sample quantity.
(§5) The Km value to F-VH was worked out as follows. […] Subsequently, activities in the samples were measured by the above-described activity measurement method. […]

[3] = substrate: CC(C)[C@H](NCC1(O)OC[C@@H](O)[C@@H](O)[C@@H]1O)C(=O)N[C@@H](Cc1c[nH]cn1)C(=O)O; experiment: Km value to F-VH (Lineweaver-Burk plot); assay type: biochemical, E. terrenum; conditions: other: FPOX-EE, F-VH 0.18-1.75 mM, 37° C., MES pH 6.5, peroxidase-coupled
Method: as §1, §2, §3, §4, §5

Phaeosphaeria nodorum fructosyl valyl histidine oxidase IE353, wild type, SEQ ID NO: 1 (Parastagonospora nodorum SN15)
Km [1]: 500 µM

B1: FPOX-CE (Coniochaeta sp.), conventional enzyme manufactured by KIKKOMAM Corporation (Coniochaeta sp. NISL 9330) (protein)
chain: MTSNRADTRVIVVGGGGTIGSSTALHLVRSGYAPANITVLDTFEIPSAQSAGHDLNKIMGIRLRNKVDLQMSLEARQMWKEDELFQPFFHNTGRMDCEHTPEGIEDLKKQYQALHDAGAGLEKTHAWLDNEDEILSKMPLLQRDQIQGWKAIWSQDGGWLAAAKAINAIGQFLKERGVKFGFGGAGSFKQPLFDDEGTTCIGVETADGTKYYADKVVLAAGAWSPTLVDLEDQCCSKAWVYAHIQLTPEEAAEYKGVPVVYNGEFGFFFEPNEFGVIKVCDEFPGFSRFKEHQPYGAPSPKHISVPRSHAKHPTDTYPDASEVSIKKAIATFLPRFQDKELFNRALCWCTDTADAALLMCEHPKWKNFILATGDSGHSFKILPNVGKHVVELIEGRLPEEMAYQWRWRPGGDALKSRRAAPPKDLADMPGWKHDPKL
Km [2]: 1000 µM

B2: FPOX-EE (E. terrenum), conventional enzyme manufactured by KIKKOMAM Corporation (Penicillium terrenum) (protein)
chain: MAHSRASTKVVVVGGGGTIGSSTALHLIRSGYTPSNITVLDVYKTPSLQSAGHDLNKIMGIRLRNGPDLQLSLESLDMWQNDELFKPFFHQVGMIDCSSSKEGIENLRRKYQTLLDAGIGLEKTNVWLESEDEILAKAPNFTREQVKGWKGLFCTDGGWLAAAKAINAIGIFLQDKGVKFGFGGAGTFQQPLFAADGKTCIGLETTDGTKYFADKVVLAAGAWSPTLVDLEDQCVSKAWVFAHIQLTPKEADAYKNVPVVYDGEYGFFFEPNEYGVIKVCDEFPGFSRFKLHQPYGAASPKMISVPRSHAKHPTDTYPDASEVTIRKAIARFLPEFKDKELFNRTMCWCTDTADANLLICEHPKWKNFILATGDSGHSFKLLPNIGKHVVELLEGSLSQEMAGAWRWRPGGDALRSRRGAPAKDLAEMPGWKHDAHL
Km [3]: 1000 µM
